The experiment addresses Gab1 (UniProt Q9QYY0). The experiment in a line: co-immunoprecipitation, immunoblot. The following applies: reference: wild-type PAR3 with PAR1b; sites S144,S873.

Consider “PAR3 (from UniProt Q8TEW0) PAR3 S144A/S873A with PAR1b”, for which the “binding against the reference” value was “stronger”.
